In assay [1] the target is T1, N-terminal FLAG-tagged fusion protein including most of the extracellular region of human IL-13Rα1 (human, UniProt P78552 29-343).
T1 construct: also called hIL-13Rα1.ECR; Human IL-13Rα1.ECR
T1 sequence: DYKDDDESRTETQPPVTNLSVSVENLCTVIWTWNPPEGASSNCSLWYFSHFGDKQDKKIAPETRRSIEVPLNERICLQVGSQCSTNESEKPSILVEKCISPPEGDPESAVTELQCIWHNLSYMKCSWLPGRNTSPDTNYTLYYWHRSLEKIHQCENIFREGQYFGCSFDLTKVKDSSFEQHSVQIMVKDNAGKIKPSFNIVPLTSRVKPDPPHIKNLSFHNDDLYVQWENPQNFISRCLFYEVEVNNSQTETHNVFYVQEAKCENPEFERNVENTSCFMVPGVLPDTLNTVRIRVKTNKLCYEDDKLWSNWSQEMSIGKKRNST
In words: BIACORE, hIL-13Rα1.ECR immobilized on CM5 chip, mAb in solution, bivalent model. In general terms: Surface plasmon resonance follows binding to a sensor surface in real time, without labels.
Source text: BIACORE™-Based Studies. […] Ethanolamine (1.0 M), pH 8.0 was used to quench residual active esters post hIL-13Rα1.ECR immobilization.
Sensorgrams generated were fitted to a bivalent ligand binding model to simultaneously derive association (kₐ) and dissociation (kd) rates and used to determine binding affinity (KD, Biaevaluation software, BIACORE™, Sweden).

The target of assay [2] is T1, N-terminal FLAG-tagged fusion protein …. In words: BIACORE, receptor ECR immobilized on CM5 chip, mAb in solution.
Assay [3] deals with T2, cynomolgus IL-13Rα1.ECR, N-terminal FLAG-tagged fusion protein (cynomolgus macaque, UniProt P78552 27-343 (human entry)).
T2 construct: also called cyIL-13Rα1; Cynomolgus IL13Rα.ECR; not shown: N-terminal FLAG tag from the pEFBOS-S-FLAG vector
T2 chain: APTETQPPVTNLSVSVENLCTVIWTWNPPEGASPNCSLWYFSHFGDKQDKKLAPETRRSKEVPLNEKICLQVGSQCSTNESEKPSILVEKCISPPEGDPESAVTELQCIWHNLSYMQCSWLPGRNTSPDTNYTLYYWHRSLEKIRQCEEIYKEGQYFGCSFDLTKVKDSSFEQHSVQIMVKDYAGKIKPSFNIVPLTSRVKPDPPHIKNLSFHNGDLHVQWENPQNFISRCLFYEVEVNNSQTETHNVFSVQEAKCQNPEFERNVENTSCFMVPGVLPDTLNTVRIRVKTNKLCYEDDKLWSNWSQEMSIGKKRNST
The assay is described as above.

B1: human monoclonal antibody 15F4 (antibody, V domains shown)
VH: QVQLVESGGGVVQPGRSLRLSCAASGFTFSSYGMHWVRQAPGKGLEWVAVIWDDGSNKYYEVSVKGRFTISRDNSKNTLYLQMNSLRVEDTAVYYCARDSNNWYVGVFDIWGQGTMVTVSS
VL: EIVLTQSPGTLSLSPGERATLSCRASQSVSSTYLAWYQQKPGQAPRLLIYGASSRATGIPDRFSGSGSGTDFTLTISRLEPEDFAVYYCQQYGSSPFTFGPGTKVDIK
notes: also called mAb 15F4; hybridoma ATCC PTA-6935
In the case of B1, the Kd in assay [1] was approximately 2.17 nM.

B2: monoclonal antibody 8B4 (antibody, V domains shown)
VH: EVQVLESGGGLVQPGGSLRLSCAASGFTFSNYAMTWVRQAPGKGLEWVSTISGRGYSIYYADSVKGRFTISRDNSKNTVYLQMNSLRAEDTAVYYCAKEEGHWYFDVWGRGTLVTVSS
VL: EIVLTQSPDFQSVTPKEKVTITCRASQSIGSSLHWYQQKPDQSPKLLIKYASQSFSGVPSRFSGSGSGTDFTLTINSLEAEDAAAYYCHQSSSLPYTFGQGTKLEIK
With B2, the Kd in assay [2] was determined as 4.6 nM; in assay [3], 0.59 nM.

Source of the values: patent US20110052597A1 (CSL, published 2011).
